{"source": "paper PMC9596850", "about": "“Tonsillar Microbiome‐Derived Lantibiotics Induce Structural Changes of IL‐6 and IL‐21 Receptors and Modulate Host Immunity” (Advanced Science, 2022)", "binders": {"B1": {"name": "murine IL-6 (ligand, mouse, UniProt P08505 25-211, looked up)", "chain": "FPTSQVRRGDFTEDTTPNRPVYTTSQVGGLITHVLWEIVEMRKELCNGNSDCMNNDDALAENNLKLPEIQRNDGCYQTGYNQEICLLKISSGLLEYHSYLEYMKNNLKDNKKDKARVLQRDTETLIHIFNQEVKDLHKIVLPTPISNALLTDKLESQKEWLRTKTIQFILKSLEEFLKVTLRSTRQT", "notes": "also called mIL-6"}, "B2": {"name": "salivaricin B (peptide)", "peptide": "GGGVIQTISHECRMNSWQFLFTCCS", "notes": "salivaricin B, lantibiotic peptide commonly synthesized by S. salivarius; Chemically synthesized; also called SalB; source: synthetic peptide (solid-phase, RoYo Biotech; HPLC, purity more than 96%)"}, "B3": {"name": "salivaricin A2 (peptide)", "peptide": "KRGTGWFATITDDCPNSVFVCC", "notes": "salivaricin A2, lantibiotic peptide commonly synthesized by Streptococcus salivarius; also called SalA2; source: synthetic peptide (solid-phase, RoYo Biotech), HPLC purified, purity more than 96%"}, "B4": {"name": "salivaricin B (peptide)", "peptide": "GGGVIQTISHECRMNSWQFLFTCCS", "notes": "salivaricin B, lantibiotic peptide commonly synthesized by Streptococcus salivarius; chemically synthesized; Molecular weight on the synthesis report is 2805.23; also called SalB; source: synthetic peptide (solid-phase synthesis, RoYo Biotech; HPLC purified, purity more than 96%)"}, "B5": {"name": "murine IL-21 receptor (receptor)", "chain": "not shown", "notes": "also called mIL-21R; source: bought: Sino Biological"}}, "conditions_in_all_cases": "both partners purified", "key": {"[1]": {"molecular_target": "T1, murine IL-6 receptor subunit alpha (mouse, UniProt P22272 20-364)", "T1 construct": "also called mIL-6Rα; IL-6Rα; source: bought: abcam", "T1 sequence (looked up)": "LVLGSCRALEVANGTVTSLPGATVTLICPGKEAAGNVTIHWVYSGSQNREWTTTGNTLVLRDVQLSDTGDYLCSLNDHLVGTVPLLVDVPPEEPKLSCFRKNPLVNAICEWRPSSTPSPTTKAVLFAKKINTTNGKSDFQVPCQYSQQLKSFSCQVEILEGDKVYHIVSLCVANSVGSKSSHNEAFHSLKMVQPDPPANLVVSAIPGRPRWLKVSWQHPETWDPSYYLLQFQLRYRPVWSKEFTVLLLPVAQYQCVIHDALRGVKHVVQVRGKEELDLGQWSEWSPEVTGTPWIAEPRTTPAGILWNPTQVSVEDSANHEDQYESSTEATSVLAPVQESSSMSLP", "test": "SPR; Biacore 8K; receptor immobilised on a CM5 chip by amine coupling, 25 °C, PBS-P running buffer, analyte with 5% DMSO; 1:1 binding model"}, "[2]": {"molecular_target": "T2, recombinant mouse IL-6 receptor subunit alpha protein with the Fc region of mouse IgG2a (mouse, UniProt P22272 20-364)", "T2 construct": "also called Fc-IL-6Rα; IL-6Rα; source: bought: abcam", "T2 sequence (looked up)": "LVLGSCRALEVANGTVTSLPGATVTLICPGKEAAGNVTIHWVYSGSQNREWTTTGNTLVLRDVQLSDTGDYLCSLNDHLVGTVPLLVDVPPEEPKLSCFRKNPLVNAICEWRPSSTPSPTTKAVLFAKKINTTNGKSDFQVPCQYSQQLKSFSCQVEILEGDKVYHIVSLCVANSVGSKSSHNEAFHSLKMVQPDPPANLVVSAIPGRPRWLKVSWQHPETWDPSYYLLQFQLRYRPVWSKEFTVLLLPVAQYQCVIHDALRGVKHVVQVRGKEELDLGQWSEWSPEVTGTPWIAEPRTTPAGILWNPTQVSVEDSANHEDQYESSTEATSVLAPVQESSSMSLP", "test": "SPR; Biacore 8K; receptor immobilised on CM5 chip by amine coupling, 25 °C, PBS-P running buffer; analytes with 5% DMSO injected serially; steady-state affinity model"}, "[3]": {"molecular_target": "T3, mouse IL-21 receptor protein with the Fc region of human IgG1 (mouse, UniProt Q9JHX3 20-237)", "T3 construct": "also called IL-21R-Fc; murine IL-21R; source: bought: Sino Biological", "test": "SPR; Biacore 8K; receptor immobilised on CM5 chip by amine coupling, 25 °C, PBS-P running buffer; analytes with 5% DMSO injected serially; steady-state affinity model"}, "[4]": {"molecular_target": "T1, murine IL-6 receptor subunit alpha", "test": "SPR; Biacore 8K; receptor immobilised on a CM5 chip by amine coupling, 25 °C, PBS-P running buffer, analytes with 5% DMSO; steady state affinity model"}, "murine IL-21 receptor": {"molecular_target": "T4, murine IL-21 receptor (mouse, UniProt Q9JHX3 20-237)", "T4 construct": "also called mIL-21R; Mouse IL-21R; source: bought: Sino Biological", "test": "SPR; Biacore 8K; murine IL-6Rα or IL-21R (20 nM) immobilised on a CM5 chip by amine coupling, 25 °C, PBS-P running buffer; analytes with 5% DMSO injected serially (salivaricin B and mutants 12.5-800 µM; mIL-6 0.003125-0.1 µM; mIL-21 0.625-5 nM); KD of salivaricins from a steady-state affinity model"}, "[5]": {"molecular_target": "T5, murine IL-6 receptor subunit alpha (mouse, UniProt P22272 20-364)", "T5 construct": "also called IL-6Rα; mIL-6R; source: bought: abcam", "T5 sequence (looked up)": "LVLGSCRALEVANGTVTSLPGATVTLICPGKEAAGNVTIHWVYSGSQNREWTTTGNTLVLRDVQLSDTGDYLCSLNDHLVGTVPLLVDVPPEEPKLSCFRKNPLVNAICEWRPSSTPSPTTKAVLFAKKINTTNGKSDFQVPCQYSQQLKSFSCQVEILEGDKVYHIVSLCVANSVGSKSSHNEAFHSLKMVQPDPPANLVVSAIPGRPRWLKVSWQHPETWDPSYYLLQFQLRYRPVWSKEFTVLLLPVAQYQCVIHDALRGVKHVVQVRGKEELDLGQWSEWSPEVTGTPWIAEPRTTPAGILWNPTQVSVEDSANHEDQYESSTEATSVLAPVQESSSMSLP", "test": "SPR; Biacore 8K; murine IL-6Rα or IL-21R (20 nM) immobilised on a CM5 chip by amine coupling, 25 °C, PBS-P running buffer; analytes with 5% DMSO injected serially (salivaricin B and mutants 12.5-800 µM; mIL-6 0.003125-0.1 µM; mIL-21 0.625-5 nM); KD of salivaricins from a steady-state affinity model"}, "murine IL-21": {"molecular_target": "murine IL-21 (mouse, UniProt Q9ES17 18-146)", "test": "SPR; Biacore 8K; receptor immobilised on a CM5 chip by amine coupling, 25 °C, PBS-P running buffer, analytes with 5% DMSO; steady state affinity model"}}, "data": [{"binder": "B1", "values": [{"measurement": "Kd", "setting": "[1]", "result": 0.0137, "unit": "µM"}]}, {"binder": "B2", "values": [{"measurement": "Kd", "setting": "[2]", "result": 160, "unit": "µM"}, {"measurement": "Kd", "setting": "[3]", "result": 10.1, "unit": "µM"}]}, {"binder": "B3", "values": [{"measurement": "Kd", "setting": "[4]", "result": 51.4, "unit": "µM"}]}, {"binder": "B4", "values": [{"measurement": "Kd", "setting": "murine IL-21 receptor", "result": 12.6, "unit": "µM"}, {"measurement": "Kd", "setting": "[5]", "result": 354, "unit": "µM"}]}, {"binder": "B5", "values": [{"measurement": "Kd", "setting": "murine IL-21", "result": 0.0349, "unit": "nM"}]}]}
